Reference: paper PMC3869383
pKd: −log10 of the molar value.

Target: 20S core particle purified from S. cerevisiae (S. cerevisiae (endogenous in yeast)) (UniProt P22141)
Experiment: not given

Substance | peptidase stimulation, % of WT base
recombinant base variant DN4 (pore-2 loop DN in Rpt4) (from UniProt P33299;P40327;P33298;P53549;P33297;Q01939;P38764;P32565;O13563) (complex) | 192 % WT
recombinant base variant DN6 (pore-2 loop DN in Rpt6) (from UniProt P33299;P40327;P33298;P53549;P33297;Q01939;P38764;P32565;O13563) (complex) | 84 % WT
recombinant base variant EN2 (pore-2 loop EN in Rpt2) (from UniProt P33299;P40327;P33298;P53549;P33297;Q01939;P38764;P32565;O13563) (complex) | 110 % WT
recombinant base variant EQ4 (Walker-B EQ in Rpt4) (from UniProt P33299;P40327;P33298;P53549;P33297;Q01939;P38764;P32565;O13563) (complex) | 95 % WT
recombinant base variant EQ5 (Walker-B EQ in Rpt5) (from UniProt P33299;P40327;P33298;P53549;P33297;Q01939;P38764;P32565;O13563) (complex) | 118 % WT
recombinant base variant KS2 (Walker-A KS in Rpt2) (from UniProt P33299;P40327;P33298;P53549;P33297;Q01939;P38764;P32565;O13563) (complex) | 10 % WT
recombinant base variant KS3 (Walker-A KS in Rpt3) (from UniProt P33299;P40327;P33298;P53549;P33297;Q01939;P38764;P32565;O13563) (complex) | 58 % WT
recombinant base variant KS5 (Walker-A KS in Rpt5) (from UniProt P33299;P40327;P33298;P53549;P33297;Q01939;P38764;P32565;O13563) (complex) | 59 % WT
recombinant base variant KS6 (Walker-A KS in Rpt6) (from UniProt P33299;P40327;P33298;P53549;P33297;Q01939;P38764;P32565;O13563) (complex) | 54 % WT
recombinant base variant NT2 (C-terminal tail of Rpt2 truncated) (from UniProt P33299;P40327;P33298;P53549;P33297;Q01939;P38764;P32565;O13563) (complex) | 10 % WT
recombinant base variant NT3 (C-terminal tail of Rpt3 truncated) (from UniProt P33299;P40327;P33298;P53549;P33297;Q01939;P38764;P32565;O13563) (complex) | 5 % WT
recombinant base variant NT4 (C-terminal tail of Rpt4 truncated) (from UniProt P33299;P40327;P33298;P53549;P33297;Q01939;P38764;P32565;O13563) (complex) | 108 % WT
recombinant base variant NT5 (C-terminal tail of Rpt5 truncated) (from UniProt P33299;P40327;P33298;P53549;P33297;Q01939;P38764;P32565;O13563) (complex) | 7 % WT
recombinant base variant YA1 (pore-1 loop YA in Rpt1) (from UniProt P33299;P40327;P33298;P53549;P33297;Q01939;P38764;P32565;O13563) (complex) | 84 % WT
recombinant base variant YA2 (pore-1 loop YA in Rpt2) (from UniProt P33299;P40327;P33298;P53549;P33297;Q01939;P38764;P32565;O13563) (complex) | 38 % WT
recombinant base variant with the Walker-B EQ mutation in all six Rpt subunits (from UniProt P33299;P40327;P33298;P53549;P33297;Q01939;P38764;P32565;O13563) (complex) | 110 % WT

Target: 20S core particle purified from S. cerevisiae (S. cerevisiae (endogenous in yeast)) (UniProt P22141)
Experiment: peptidase-stimulation

Substance | pKd
recombinant base variant YA2 (pore-1 loop YA in Rpt2) (from UniProt P33299;P40327;P33298;P53549;P33297;Q01939;P38764;P32565;O13563) (complex) | 6.86

Target: recombinant base variant NT5 (C-terminal tail of Rpt5 truncated) (S. cerevisiae) (UniProt P33299)
Experiment: ATPase-repression titration

Substance | fold lower affinity than wild-type base
20S core particle purified from S. cerevisiae (from UniProt P22141 1-198) (complex) | 5.6 fold

Target: recombinant base variant NT2 (C-terminal tail of Rpt2 truncated) (S. cerevisiae) (UniProt P33299)
Experiment: ATPase-repression titration

Substance | fold lower affinity than wild-type base
20S core particle purified from S. cerevisiae (from UniProt P22141 1-198) (complex) | 1.3 fold
